Measurements from article PMC11195156 (bioRxiv, 2025).

T1: Escherichia coli sulfite reductase hemoprotein (Escherichia coli K-12, UniProt P17846 1-570)
T1 sequence: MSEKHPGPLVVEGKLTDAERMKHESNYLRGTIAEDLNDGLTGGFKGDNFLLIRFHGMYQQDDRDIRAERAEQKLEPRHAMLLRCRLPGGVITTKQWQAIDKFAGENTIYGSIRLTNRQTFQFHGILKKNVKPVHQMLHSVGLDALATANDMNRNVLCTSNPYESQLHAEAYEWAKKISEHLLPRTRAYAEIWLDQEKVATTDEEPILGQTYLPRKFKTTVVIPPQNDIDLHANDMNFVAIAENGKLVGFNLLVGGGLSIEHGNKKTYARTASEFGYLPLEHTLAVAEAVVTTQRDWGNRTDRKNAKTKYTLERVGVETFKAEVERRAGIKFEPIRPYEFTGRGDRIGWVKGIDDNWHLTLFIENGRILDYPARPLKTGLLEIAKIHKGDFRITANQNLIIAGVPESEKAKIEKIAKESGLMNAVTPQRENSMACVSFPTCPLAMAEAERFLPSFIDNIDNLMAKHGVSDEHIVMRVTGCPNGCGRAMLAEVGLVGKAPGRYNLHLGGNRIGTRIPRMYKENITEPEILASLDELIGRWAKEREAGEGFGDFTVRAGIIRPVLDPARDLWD


biological target: T1, Escherichia coli sulfite reductase …; experiment: cryo-EM structure

Row | binding result | Binder
1 | binds | SiRFP-60Δ: sulfite reductase flavoprotein amino acids 52-599/Δ212-217 (Δ-AAPSQS) (domain or fragment, Escherichia coli K-12, UniProt P38038 52-599, looked up) AATPAPAAEMPGITIISASQTGNARRVAEALRDDLLAAKLNVKLVNAGDYKFKQIASEKLLIVVTSTQGEGEPPEEAVALHKFLFSKKAPKLENTAFAVFSLGDSSYEFFCQSGKDFDSKLAELGGERLLDRVDADVEYQAAASEWRARVVDALKSRAPVVATGAVNEIHTSPYSKDAPLVASLSVNQKITGRNSEKDVRHIEIDLGDSGMRYQPGDALGVWYQNDPALVKELVELLWLKGDEPVTVEGKTLPLNEALQWHFELTVNTANIVENYATLTRSETLLPLVGDKAKLQHYAATTPIVDMVRFSPAQLDAEALINLLRPLTPRLYSIASSQAEVENEVHVTVGVVRYDVEGRARAGGASSFLADRVEEEGEVRVFIEHNDNFRLPANPETPVIMIGPGTGIAPFRAFMQQRAADEAPGKNWLFFGNPHFTEDFLYQVEWQRYVKDGVLTRIDLAWSRDQKEKVYVQDKLREQGAELWRWINDGAHIYVCGDANRMAKDVEQALLEVIAEFGGMDTEAADEFLSELRVERRYQRDVY
2 | binds | SiRFP-60X: sulfite reductase flavoprotein amino acids 52-599 (C162T/C552S/E121C/N556C) (domain or fragment, Escherichia coli K-12, UniProt P38038 52-599, looked up) AATPAPAAEMPGITIISASQTGNARRVAEALRDDLLAAKLNVKLVNAGDYKFKQIASEKLLIVVTSTQGCGEPPEEAVALHKFLFSKKAPKLENTAFAVFSLGDSSYEFFTQSGKDFDSKLAELGGERLLDRVDADVEYQAAASEWRARVVDALKSRAPVAAPSQSVATGAVNEIHTSPYSKDAPLVASLSVNQKITGRNSEKDVRHIEIDLGDSGMRYQPGDALGVWYQNDPALVKELVELLWLKGDEPVTVEGKTLPLNEALQWHFELTVNTANIVENYATLTRSETLLPLVGDKAKLQHYAATTPIVDMVRFSPAQLDAEALINLLRPLTPRLYSIASSQAEVENEVHVTVGVVRYDVEGRARAGGASSFLADRVEEEGEVRVFIEHNDNFRLPANPETPVIMIGPGTGIAPFRAFMQQRAADEAPGKNWLFFGNPHFTEDFLYQVEWQRYVKDGVLTRIDLAWSRDQKEKVYVQDKLREQGAELWRWINDGAHIYVSGDACRMAKDVEQALLEVIAEFGGMDTEAADEFLSELRVERRYQRDVY
3 | binds | SiRFP-43: sulfite reductase flavoprotein amino acids 237-599 (domain or fragment, Escherichia coli K-12, UniProt P38038 237-599, looked up) LVASLSVNQKITGRNSEKDVRHIEIDLGDSGMRYQPGDALGVWYQNDPALVKELVELLWLKGDEPVTVEGKTLPLNEALQWHFELTVNTANIVENYATLTRSETLLPLVGDKAKLQHYAATTPIVDMVRFSPAQLDAEALINLLRPLTPRLYSIASSQAEVENEVHVTVGVVRYDVEGRARAGGASSFLADRVEEEGEVRVFIEHNDNFRLPANPETPVIMIGPGTGIAPFRAFMQQRAADEAPGKNWLFFGNPHFTEDFLYQVEWQRYVKDGVLTRIDLAWSRDQKEKVYVQDKLREQGAELWRWINDGAHIYVCGDANRMAKDVEQALLEVIAEFGGMDTEAADEFLSELRVERRYQRDVY
